Measured values as given in patent publication US9283300B2, “Use of midkine protein and the protein-containing medical device” (GENERAL REGENERATIVES, LTD, priority 2009, dated 2016).

Experiments:
[1] = test system: cartilage of normal rat (articular, ear, tracheal, intervertebral disc); experiment: rhMK effect on cartilage thickness of normal rats (subcutaneous injection, histology); format: in vivo; conditions: rhMK 175 μg/kg s.c. daily for a week
Protocol: Method. 8-weeks-old male C57BL/6J mice were injected subcutaneously with recombinant human MK (rhMK) or control saline. The injection volume was 0.5 ml, given daily for a week. The mice were grouped (3 animals per group): Saline (NS) group, rhMK groups injected with various dosages at 10, 33, 100, 300, 900 μg/kg. Rats were injected with saline or rhMK (175 μg/kg) daily for a week. Rabbits were injected with saline or rhMK (92.5 μg/kg) daily for two week. Histological observation and evaluation. The knee joint tissues of all mice and rats were fixed in 10% (v/v) formalin for 1 day, the tissues of rabbits were fixed for 2 days. The fixed tissues were subjected to demineralization in liquid (7% AlCl3.6H2O, 5% methanoic acid, 8.5% HCl) 4 days for mouse and rats issues, and 10 days for rabbit tissues. The demineralized tissues were subjected to dehydration by gradient ethanol, and treated for transparency by xylene, and embedded in wax. Tissue sections were prepared by the paraffin slicing machine (Laica), and stained with hemotoxylin/eosin or Safranine O/fast green staining. Slides were observed under microscope and analyzed. The thickness of cartilage tissues were measured by the vernier caliper on microscope. Three tissue sections from each sample were measured and analyzed statisticaly. The distance between surface of cartilage to subchondral tide line was measured at ½ position of femoral condyle to denote the thickness of knee-joint cartilage. The thickness of cartilage at central part of ears was measured to denote the thickness of ear elastic cartilage. The distance between out surface of annulus to nucleus of the intervertebral disc was measured to denote the thickness of thoracic intervertebral disc (T2-3). To verify the results of rhMk in mice, we performed the same experiments in vivo using commonly used laboratory animals, rat and rabbit. Rats were injected subcutaneously with rhMK at 175 μg/kg/day for one week, and rabbits was injected subcutaneously 92.5 ug/kg/day for two weeks. […] The injection dose of rhMK: mice was injected subcutaneously 300 μg/kg daily for a week; rats were injected 175 μg/kg daily for a week; and New Zealand rabbits was injected 92.5 μg/kg daily for two weeks. Three animals per group were analyzed.

[2] = test system: cartilage of normal mouse (knee-joint articular, ear elastic, tracheal, intervertebral disc); experiment: rhMK effect on cartilage thickness of normal mice (subcutaneous injection, histology); format: in vivo, C57BL/6J mice; conditions: for Thickness of cartilage, Ear elastic cartilage / Thickness of cartilage, Femoral condyle / Thickness of cartilage, Intervertbral disc (T2-3): normal mouse, mean ± SD
Protocol: Method. 8-weeks-old male C57BL/6J mice were injected subcutaneously with recombinant human MK (rhMK) or control saline. The injection volume was 0.5 ml, given daily for a week. The mice were grouped (3 animals per group): Saline (NS) group, rhMK groups injected with various dosages at 10, 33, 100, 300, 900 μg/kg. Rats were injected with saline or rhMK (175 μg/kg) daily for a week. Rabbits were injected with saline or rhMK (92.5 μg/kg) daily for two week. Histological observation and evaluation. The knee joint tissues of all mice and rats were fixed in 10% (v/v) formalin for 1 day, the tissues of rabbits were fixed for 2 days. The fixed tissues were subjected to demineralization in liquid (7% AlCl3.6H2O, 5% methanoic acid, 8.5% HCl) 4 days for mouse and rats issues, and 10 days for rabbit tissues. The demineralized tissues were subjected to dehydration by gradient ethanol, and treated for transparency by xylene, and embedded in wax. Tissue sections were prepared by the paraffin slicing machine (Laica), and stained with hemotoxylin/eosin or Safranine O/fast green staining. Slides were observed under microscope and analyzed. The thickness of cartilage tissues were measured by the vernier caliper on microscope. Three tissue sections from each sample were measured and analyzed statisticaly. The distance between surface of cartilage to subchondral tide line was measured at ½ position of femoral condyle to denote the thickness of knee-joint cartilage. The thickness of cartilage at central part of ears was measured to denote the thickness of ear elastic cartilage. The distance between out surface of annulus to nucleus of the intervertebral disc was measured to denote the thickness of thoracic intervertebral disc (T2-3). The injection dose of rhMK: mice was injected subcutaneously 300 μg/kg daily for a week; rats were injected 175 μg/kg daily for a week; and New Zealand rabbits was injected 92.5 μg/kg daily for two weeks. Three animals per group were analyzed.

[3] = Mouse, rhMK 300 μg/kg s.c. daily for a week
[4] = rhMK 10 μg/kg s.c. daily for one week
[5] = rhMK 33 μg/kg s.c. daily for one week
[6] = rhMK 100 μg/kg s.c. daily for one week
[7] = rhMK 300 μg/kg s.c. daily for one week
[8] = rhMK 900 μg/kg s.c. daily for one week

B1: rhMK: recombinant human midkine mature protein (SEQ ID NO.1) expressed in E. coli and purified by ion-exchange chromatography (protein, listed as Homo sapiens)
chain: MKKKDKVKKGGPGSECAEWAWGPCTPSSKDCGVGFREGTCGAQTQRIRCRVPCNWKKEFGADCKYKFENWGACDGGTGTKVRQGTLKKARYNAQCQETIRVTKPCTPKTKAKAKAKKGKGKD
Cartilage thickness, Ear [1]: 107 ± 3.4 µm | Cartilage thickness, Femoral condyle [1]: 263 ± 54.4 µm | Cartilage thickness, Intervertbral disc (T2-3) [1]: 659 ± 40.8 µm | Cartilage thickness, Trachea [1]: 246 ± 9.1 µm | Cartilage thickness, Ear [2, 3]: 58.5 ± 19.6 µm | Cartilage thickness, Femoral condyle [2, 3]: 195 ± 9.9 µm | Cartilage thickness, Intervertbral disc (T2-3) [2, 3]: 201 ± 17.2 µm | Cartilage thickness, Trachea [2, 3]: 114 ± 18 µm | effective dose that promoted the growth of all three categories of cartilages ([2]; mice, s.c. daily for a week): 300 µg/kg/day | minimum effective dose, articular cartilage and ear elastic cartilage ([2]; mice, s.c. daily for a week): 10 µg/kg/day | Thickness of cartilage, Ear elastic cartilage [2, 4]: 47.6 ± 4.7 μm | Thickness of cartilage, Femoral condyle [2, 4]: 152 ± 2.7 μm | Thickness of cartilage, Intervertbral disc (T2-3) [2, 4]: 193.8 ± 25.2 μm | Thickness of cartilage, Ear elastic cartilage [2, 5]: 46.2 ± 5.6 μm | Thickness of cartilage, Femoral condyle [2, 5]: 156.4 ± 8.1 μm | Thickness of cartilage, Intervertbral disc (T2-3) [2, 5]: 206.2 ± 29.4 μm | Thickness of cartilage, Ear elastic cartilage [2, 6]: 48.9 ± 5.5 μm | Thickness of cartilage, Femoral condyle [2, 6]: 172.4 ± 11.1 μm | Thickness of cartilage, Intervertbral disc (T2-3) [2, 6]: 193.8 ± 3.1 μm | Thickness of cartilage, Ear elastic cartilage [2, 7]: 58.5 ± 19.6 μm | Thickness of cartilage, Femoral condyle [2, 7]: 195.3 ± 9.9 μm | Thickness of cartilage, Intervertbral disc (T2-3) [2, 7]: 200.7 ± 17.2 μm | Thickness of cartilage, Ear elastic cartilage [2, 8]: 51.6 ± 5.6 μm | Thickness of cartilage, Femoral condyle [2, 8]: 200.0 ± 7.0 μm | Thickness of cartilage, Intervertbral disc (T2-3) [2, 8]: 217.1 ± 6.0 μm
